Assay results: PMC4277623, “Synthesis and Preliminary Evaluation of a New ^99mTc Labeled Substance P Analogue as a Potential Tumor Imaging Agent” (Iranian Journal of Pharmaceutical Research : IJPR, 2015)
Where two headings read alike, the source gives them in different places.

Tests used:
[1] = Biodistribution in normal mice; assay type: in vivo; details: for tissue uptake at 1 h / tissue uptake at 4 h / tissue uptake at 24 h: male, mouse, iv, total radioactivity
Procedure: Male albino mice in a weight range of18-24 g were used for normal mice treatments and malenude mice (6 to 8 weeks old) were used for in-vivo tumor treatments. The mice were housed at controlled room temperature (25 °C) in a 12 h light/12 h dark schedule. They were kept in standard cages with free access to food and water except during the experiments. The nude mice were grown and kept in isolated sterile condition. All animal experiments were carried out in compliance with our institutional ethical guidelines.
Freshly labeled ^99mTc-HYNIC-Tyr^8-Met(O)^11-SP (purity>98%) was diluted to 3.3 nmol/mL with normal saline and a dose of 800 µCi/ 330 pmol in 100 µL was injected to each mouse via the tail vein. Also agroup of three animals (blocked group) were given150 µg of SP in 50 µL salineco-injected with the radiopeptide to determine the non-specific biodistribution of the radiopeptide by blocking the receptor-positive organs. After 1, 4, and 24 h post injection the mice in groups of three animals were sacrificed and organs of interest were excised. All organs and tissues were weighed, and the radioactivity was determined by gamma counter. Results were expressed as percentage of injected dose per gram (% ID/g) of tissue.

[2] = system: U373MG cells; assay: Internalization and surface binding in U373MG cells; assay type: cell-based, human; details: for total cell uptake: 37 °C, 2.5 pmol peptide per well, % of total activity per well, triplicates; for receptor specific cell uptake: total minus nonspecific (10000 fold excess unlabeled SP)
Procedure: All the main cell studies were performed on U373MG human Glioblastoma cell lines. Cells were cultured in DMEM was supplemented with L-glutamine, antibiotics (penicillin, streptomycine, gentamycine) and10% FBS. They were grown in culture until a sufficient number of cells were available. At proper times, cells were detached by trypsin-EDTA (0.25% and 0.02%) from the culture flask and diluted with fresh medium to start a new culture or the cell line tests.
Internalization of the ^99mTclabeled HYNIC-Tyr^8-Met(O)^11-SP was studied as previously described method([32], [33]) with some modifications. In brief, newly detached U373MG cells were seeded in six-well plates 12 h before the experiment. Their culture medium was replaced by 1.2 mL of previously warmed fresh medium and cells were allowed to adjust to the medium for 1 h at 37 °C, 5% CO2. In order to determine nonspecific internalization, one line of wells per plate was incubated with 10000 fold excess of unlabeled SP (25 nmol peptide in 150 μL PBS per well) at 37°C/5% CO2 for 15 min to block NK1Rs. Then about 150kBq (2.5 pmol peptide) in 150 μL diluted solution of freshly radiolabeled peptide was added to each of the wells and were incubated (in triplicates) for 0.5, 1, 2 and 4 h at 37 °C/5% CO2, respectively. As the final volume of blocked wells was 1.5 mL, the content volume of unblocked wells was adjusted to 1.5 mL by adding 150 μL PBS per well. At each time point, radioactive media were aspirated and wells were washed twice with cold PBS (1x, pH 7.2) to remove free radio peptides. After that, cells were treated with 1 mLGly buffer (0.2M, pH adjusted to 2.8 with 1 M HCl) at room temperature for 5 min (twice) to remove cell-surface bound radio peptide. Finally, the cells were detached from the plates by three steps incubation with 1N NaOH at room temperature for 5 min to determine the internalized radio peptide. All consequent fractions were measured with a NaI γ-counter and results were expressed as percentage of total activity per well (free + cell-surface bound + internalized). Nonspecific accumulations were subtracted from totals to determine the specific accumulations.

[3] = Stability in human serum; assay type: in vitro ADME; details: fresh human serum, 37 °C, up to 24 h; sampled 1, 4, 24 h; ethanol precipitation; RP-HPLC
Procedure: The stability of radiolabeled peptide in aqueous solution was evaluated by incubation of the reaction mixture at room temperature (25 °C)up to 24 h.Stability in human serum at 37 °C was tested in parallel after adding 100 μL of reaction mixture to 1ml of fresh human serum. The incubation mixtures were sampled at 1, 4, and 24 h time points. Serum samples (100-200 μL) were treated with ethanol (200-400 μL) and centrifuged (4000 g, 5 min, 4 °C) to precipitate the serum proteins. 20-100 μL aliquots from the supernatant were separated to assess the degradation of ^99mTc labeled peptide by RP-HPLC (method I). 100 μL aliquots from the 25 °C incubated mixture were passed through a […] to eliminate possible ^99mTc colloids and then, 5-20 μL of filtrate were analyzed by RP-HPLC as well.

CC(C)C[C@H](NC(=O)CNC(=O)[C@H](Cc1ccc(O)cc1)NC(=O)[C@H](Cc1ccccc1)NC(=O)[C@H](CCC(N)=O)NC(=O)[C@H](CCC(N)=O)NC(=O)[C@@H]1CCCN1C(=O)[C@H](CCCCN)NC(=O)[C@@H]1CCCN1C(=O)[C@H](CCCNC(=N)N)NC(=O)c1ccc(NN)nc1)C(=O)N[C@@H](CC[S+](C)[O-])C(N)=O (stereo partly drawn) [^99mTc-HYNIC-Tyr^8-Met(O)^11-SP, metal not drawn]
%ID/g Blood ([1]; Blood, 1 h p.i., i.v., mean ± SEM, n=3): 1.02±0.16 %ID/g | %ID/g Blood ([1]; Blood, 4 h p.i., i.v., mean ± SEM, n=3): 0.36±0.03 %ID/g | D% Blood ([1]; Blood, decreased percent of %ID/g between 1 h and 4 h): 65% | %ID/g Bone ([1]; Bone, 1 h p.i., i.v., mean ± SEM, n=3): 0.44±0.03 %ID/g | D% Bone ([1]; Bone, decreased percent of %ID/g between 1 h and 4 h): 55% | D% Heart ([1]; Heart, decreased percent of %ID/g between 1 h and 4 h): 68% | D% Kidneys ([1]; Kidneys, decreased percent of %ID/g between 1 h and 4 h): 35% | %ID/g L. intestine ([1]; L. intestine, 1 h p.i., i.v., mean ± SEM, n=3): 1.14±0.09 %ID/g | %ID/g L. intestine ([1]; L. intestine, 4 h p.i., i.v., mean ± SEM, n=3): 1.33±0.28 %ID/g | %ID/g L. intestine ([1]; L. intestine, 24 h p.i., i.v., mean ± SEM, n=3): 0.37±0.06 %ID/g | D% L. intestine ([1]; L. intestine, decreased percent of %ID/g between 1 h and 4 h): -17% | %ID/g Liver ([1]; Liver, 1 h p.i., i.v., mean ± SEM, n=3): 0.58±0.04 %ID/g | %ID/g Liver ([1]; Liver, 4 h p.i., i.v., mean ± SEM, n=3): 0.38±0.05 %ID/g | %ID/g Liver ([1]; Liver, 24 h p.i., i.v., mean ± SEM, n=3): 0.16±0.02 %ID/g | D% Liver ([1]; Liver, decreased percent of %ID/g between 1 h and 4 h): 34% | %ID/g Lung ([1]; Lung, 1 h p.i., i.v., mean ± SEM, n=3): 0.94±0.19 %ID/g | %ID/g Lung ([1]; Lung, 4 h p.i., i.v., mean ± SEM, n=3): 0.33±0.02 %ID/g | %ID/g Lung ([1]; Lung, 24 h p.i., i.v., mean ± SEM, n=3): 0.17±0.04 %ID/g | D% Lung ([1]; Lung, decreased percent of %ID/g between 1 h and 4 h): 65% | %ID/g Muscle ([1]; Muscle, 1 h p.i., i.v., mean ± SEM, n=3): 0.32±0.07 %ID/g | D% Muscle ([1]; Muscle, decreased percent of %ID/g between 1 h and 4 h): 72% | %ID/g S. intestine ([1]; S. intestine, 1 h p.i., i.v., mean ± SEM, n=3): 2.13±0.17 %ID/g | %ID/g S. intestine ([1]; S. intestine, 4 h p.i., i.v., mean ± SEM, n=3): 0.89±0.21 %ID/g | %ID/g S. intestine ([1]; S. intestine, 24 h p.i., i.v., mean ± SEM, n=3): 0.24±0.04 %ID/g | D% S. intestine ([1]; S. intestine, decreased percent of %ID/g between 1 h and 4 h): 58% | %ID/g Salivary G. ([1]; Salivary G., 1 h p.i., i.v., mean ± SEM, n=3): 0.61±0.05 %ID/g | D% Salivary G. ([1]; Salivary G., decreased percent of %ID/g between 1 h and 4 h): 57% | D% Spleen ([1]; Spleen, decreased percent of %ID/g between 1 h and 4 h): 30% | D% Stomach ([1]; Stomach, decreased percent of %ID/g between 1 h and 4 h): 75% | tissue uptake at 1 h ([1]; albino, 330 pmol per mouse, Stomach, 1 h p.i., i.v., mean ± SEM, n=3, read-out: %ID/g Stomach): 1.57 ± 0.13 %ID/g | tissue uptake at 4 h ([1]; albino, 330 pmol per mouse, Stomach, 4 h p.i., i.v., mean ± SEM, n=3, read-out: %ID/g Stomach): 0.39 ± 0.06 %ID/g | tissue uptake at 24 h ([1]; albino, 330 pmol per mouse, Stomach, 24 h p.i., i.v., mean ± SEM, n=3, read-out: %ID/g Stomach): 0.15 ± 0.01 %ID/g | tissue uptake at 4 h ([1]; albino, salivary gland, 330 pmol per mouse, Salivary G., 4 h p.i., i.v., mean ± SEM, n=3, read-out: %ID/g Salivary G.): 0.26 ± 0.02 %ID/g | tissue uptake at 24 h ([1]; albino, salivary gland, 330 pmol per mouse, Salivary G., 24 h p.i., i.v., mean ± SEM, n=3, read-out: %ID/g Salivary G.): 0.2 ± 0.02 %ID/g | tissue uptake at 24 h ([1]; 800 uCi (330 pmol) per mouse, Blood, 24 h p.i., i.v., mean ± SEM, n=3, read-out: %ID/g Blood): 0.14 ± 0.02 %ID/g | tissue uptake at 4 h ([1]; 800 uCi (330 pmol) per mouse, Bone, 4 h p.i., i.v., mean ± SEM, n=3, read-out: %ID/g Bone): 0.2 ± 0.02 %ID/g | tissue uptake at 24 h ([1]; 800 uCi (330 pmol) per mouse, Bone, 24 h p.i., i.v., mean ± SEM, n=3, read-out: %ID/g Bone): 0.07 ± 0.03 %ID/g | tissue uptake at 1 h ([1]; 800 uCi (330 pmol) per mouse, Heart, 1 h p.i., i.v., mean ± SEM, n=3, read-out: %ID/g Heart): 0.55 ± 0.14 %ID/g | tissue uptake at 4 h ([1]; 800 uCi (330 pmol) per mouse, Heart, 4 h p.i., i.v., mean ± SEM, n=3, read-out: %ID/g Heart): 0.17 ± 0.01 %ID/g | tissue uptake at 24 h ([1]; 800 uCi (330 pmol) per mouse, Heart, 24 h p.i., i.v., mean ± SEM, n=3, read-out: %ID/g Heart): 0.06 ± 0.04 %ID/g | tissue uptake at 1 h ([1]; 800 uCi (330 pmol) per mouse, Kidneys, 1 h p.i., i.v., mean ± SEM, n=3, read-out: %ID/g Kidneys): 21.2 ± 0.7 %ID/g | tissue uptake at 4 h ([1]; 800 uCi (330 pmol) per mouse, Kidneys, 4 h p.i., i.v., mean ± SEM, n=3, read-out: %ID/g Kidneys): 13.8 ± 1.96 %ID/g | tissue uptake at 24 h ([1]; 800 uCi (330 pmol) per mouse, Kidneys, 24 h p.i., i.v., mean ± SEM, n=3, read-out: %ID/g Kidneys): 5.47 ± 0.56 %ID/g | tissue uptake at 4 h ([1]; 800 uCi (330 pmol) per mouse, Muscle, 4 h p.i., i.v., mean ± SEM, n=3, read-out: %ID/g Muscle): 0.09 ± 0.03 %ID/g | tissue uptake at 24 h ([1]; 800 uCi (330 pmol) per mouse, Muscle, 24 h p.i., i.v., mean ± SEM, n=3, read-out: %ID/g Muscle): 0.04 ± 0.02 %ID/g | tissue uptake at 1 h ([1]; 800 uCi (330 pmol) per mouse, Spleen, 1 h p.i., i.v., mean ± SEM, n=3, read-out: %ID/g Spleen): 0.4 ± 0.09 %ID/g | tissue uptake at 4 h ([1]; 800 uCi (330 pmol) per mouse, Spleen, 4 h p.i., i.v., mean ± SEM, n=3, read-out: %ID/g Spleen): 0.28 ± 0.06 %ID/g | tissue uptake at 24 h ([1]; 800 uCi (330 pmol) per mouse, Spleen, 24 h p.i., i.v., mean ± SEM, n=3, read-out: %ID/g Spleen): 0.13 ± 0.08 %ID/g | total cell uptake ([2]; 0.5 h): 2.86 ± 0.10% | receptor specific cell uptake ([2]; 0.5 h): 1.71% | total cell uptake ([2]; 4 h): 4.91 ± 0.22% | receptor specific cell uptake ([2]; 4 h): 2.98% | ratio of specific uptake to total uptake ([2]; over 0.5-4 h): 60.21 ± 1.19% | stability in human serum [3]: good stability
